Reference: US20240116985A1 (published 2024)
Starred links: 1 amine or outer side, 2 acyl side, 3 side chain; linkers in the order of their positions; H or OH if unused. Positions of bridges follow the written chain, without caps; N, C: chain ends. Non-standard residues stand in square brackets, D forms with d. Primed or numbered codes have the meaning given here. ξ: configuration not given here. PyrS2″ = (S)-3-amino-1-((pent-4-en-1-yloxy)carbonyl)pyrrolidine-3-carboxylic acid (stapling residue), C=CCCCOC(=O)N1CC[C@@](N[*:1])(C(=O)[*:2])C1; B5(18) = 2,2-bis(4-pentenyl)glycine (2-amino-2-(pent-4-en-1-yl)hept-6-enoic acid), stitching residue, C=CCCCC(CCCC=C)(N[*:1])C(=O)[*:2]; B5(23) = 2-amino-2-(pent-4-en-1-yl)hept-6-enoic acid (2,2-bis(4-pentenyl)glycine), stitching residue, C=CCCCC(CCCC=C)(N[*:1])C(=O)[*:2]; B5(4) = 2,2-bis(4-pentenyl)glycine = 2-amino-2-(pent-4-en-1-yl)hept-6-enoic acid (stitching residue), C=CCCCC(CCCC=C)(N[*:1])C(=O)[*:2]; TfeGA = (S)-2-amino-3-((carboxymethyl)(2,2,2-trifluoroethyl)amino)propanoic acid, O=C([C@H](CN(CC(=O)[*:3])CC(F)(F)F)N[*:1])[*:2]; PyrS2 = (S)-3-amino-1-((pent-4-en-1-yloxy)carbonyl)pyrrolidine-3-carboxylic acid, C=CCCCOC(=O)N1CC[C@@](N[*:1])(C(=O)[*:2])C1; PyrS3 = (S)-3-amino-1-((hex-5-en-1-yloxy)carbonyl)pyrrolidine-3-carboxylic acid, C=CCCCCOC(=O)N1CC[C@@](N[*:1])(C(=O)[*:2])C1; B5(7) = 2-amino-2-(pent-4-en-1-yl)hept-6-enoic acid, two olefinic side chains, C=CCCCC(CCCC=C)(N[*:1])C(=O)[*:2]; B5(3) = 2,2-bis(4-pentenyl)glycine (stitching residue), C=CCCCC(CCCC=C)(N[*:1])C(=O)[*:2]; Phe(3-COOH) = N[C@@H](Cc1cccc(C(=O)O)c1)C(=O)O; Phe(2-CF3) = N[C@@H](Cc1ccccc1C(F)(F)F)C(=O)O; Phe(2-Cl) = N[C@@H](Cc1ccccc1Cl)C(=O)O; Bta = N[C@@H](Cc1csc2ccccc12)C(=O)O; αAllylPro = C=CC[C@@]1(C(=O)O)CCCN1; tBuAla = CC(C)(C)C[C@H](N)C(=O)O; 3Thi = N[C@@H](Cc1ccsc1)C(=O)O; Cha = N[C@@H](CC1CCCCC1)C(=O)O; S8 = C=CCCCCCC[C@](C)(N)C(=O)O; ξβ3hD = NC(CC(=O)O)CC(=O)O; hSer = N[C@@H](CCO)C(=O)O; Aib = CC(C)(N)C(=O)O

B1: I-999 (peptide)
peptide: Ac-[αAllylPro]D[tBuAla][B5(3)]D[TfeGA]AAFS[S8][Phe(2-Cl)][Bta][hSer]-NH2
modifications: staple 1-4, 4-11; also: later eluting isomer
B2: I-1008 (peptide)
peptide: Ac-[αAllylPro]D[tBuAla][B5(18)]D[TfeGA]FAFN[PyrS2″][Phe(2-Cl)][Bta]Q-NH2
modifications: staple 1-4, 4-11
B3: I-1017 (peptide)
peptide: Ac-[αAllylPro]D[tBuAla][B5(18)]DDAAFS[PyrS2″][Phe(2-Cl)][Bta]Q-NH2
modifications: staple 1-4, 4-11
B4: I-1000 (peptide)
peptide: Ac-[αAllylPro]D[tBuAla][B5(3)]D[TfeGA]AAF[hSer][S8][Phe(2-Cl)][Bta][hSer]-NH2
modifications: staple 1-4, 4-11
B5: I-1019 (peptide)
peptide: Ac-[αAllylPro]D[tBuAla][B5(18)]DDAAFS[PyrS2″][Phe(2-Cl)][Bta]S-NH2
modifications: staple 1-4, 4-11
B6: I-1004 (peptide)
peptide: Ac-[αAllylPro]D[tBuAla][B5(18)]D[TfeGA]ASFN[PyrS2″][Phe(2-Cl)][Bta]Q-NH2
modifications: staple 1-4, 4-11
B7: I-1007 (peptide)
peptide: Ac-[αAllylPro]D[tBuAla][B5(18)]D[TfeGA]LAFN[PyrS2″][Phe(2-Cl)][Bta]Q-NH2
modifications: staple 1-4, 4-11
B8: I-1002 (peptide)
peptide: Ac-[αAllylPro]D[tBuAla][B5(18)]D[TfeGA]ALFN[PyrS2″][Phe(2-Cl)][Bta]Q-NH2
modifications: staple 1-4, 4-11
B9: I-1016 (peptide)
peptide: Ac-[αAllylPro]D[tBuAla][B5(18)]DNAAFT[PyrS2″][Phe(2-Cl)][Bta]S-NH2
modifications: staple 1-4, 4-11
B10: I-1001 (peptide)
peptide: Ac-[αAllylPro]D[tBuAla][B5(3)][3Thi][TfeGA]AAFN[PyrS2″]D[Bta]Q-NH2
modifications: staple 1-4, 4-11
B11: I-1015 (peptide)
peptide: Ac-[αAllylPro]D[tBuAla][B5(18)]DDAAFT[PyrS2″][Phe(2-Cl)][Bta]S-NH2
modifications: staple 1-4, 4-11
B12: I-1011 (peptide)
peptide: Ac-[αAllylPro]D[tBuAla][B5(18)]D[TfeGA]KAFN[PyrS2″][Phe(2-Cl)][Bta]Q-NH2
modifications: staple 1-4, 4-11
B13: I-1556 (peptide)
peptide: Ac-[αAllylPro]DA[B5(23)]NNAAFN[PyrS2][3Thi][Bta]Q-NH2
modifications: staple 1-4, 4-11
B14: Ac-PL3-Asp-Npg-B5-Asp-3COOHF-Ala-Ala-Phe-Leu-PyrS2-2F3MeF-2F3MeW-Gln-NH2 (peptide)
peptide: Ac-[αAllylPro]D[tBuAla][B5(3)]D[Phe(3-COOH)]AAFL[PyrS2″][Phe(2-CF3)][2F3MeW]Q-NH2
modifications: staple 1-4, 4-11
B15: Ac-PL3-Asp-Npg-B5-Asp-3COOHF-Gln-Ala-Phe-Leu-PyrS2-2F3MeF-2F3MeW-Ala-NH2 (peptide)
peptide: Ac-[αAllylPro]D[tBuAla][B5(3)]D[Phe(3-COOH)]QAFL[PyrS2″][Phe(2-CF3)][2F3MeW]A-NH2
modifications: staple 1-4, 4-11
B16: I-763 (peptide)
peptide: Ac-[αAllylPro]D[tBuAla][B5(7)]DDAAFQ[PyrS2][3Thi][Bta]Q-NH2
modifications: staple 1-4, 4-11
B17: I-770 (peptide)
peptide: Ac-[αAllylPro]D[tBuAla][B5(7)]D[TfeGA]AAFN[PyrS2][3Thi][Bta]H-NH2
modifications: staple 1-4, 4-11
B18: I-764 (peptide)
peptide: Ac-[αAllylPro]D[tBuAla][B5(7)]DDAAFQ[PyrS2][3Thi][Bta]Q-NH2
modifications: staple 1-4, 4-11
B19: I-768 (peptide)
peptide: Ac-[αAllylPro]D[tBuAla][B5(7)]DDAAFN[PyrS3][3Thi][Bta]Q-NH2
modifications: staple 1-4, 4-11
B20: I-771 (peptide)
peptide: Ac-[αAllylPro]D[tBuAla][B5(7)]DDAAFQ[PyrS2][3Thi][Bta]H-NH2
modifications: staple 1-4, 4-11
B21: I-767 (peptide)
peptide: Ac-[αAllylPro]D[tBuAla][B5(7)]DDAAFN[PyrS3][3Thi][Bta]Q-NH2
modifications: staple 1-4, 4-11
B22: I-772 (peptide)
peptide: Ac-[αAllylPro]D[tBuAla][B5(7)]DDAAFQ[PyrS2][3Thi][Bta]H-NH2
modifications: staple 1-4, 4-11
B23: I-769 (peptide)
peptide: Ac-[αAllylPro]D[tBuAla][B5(7)]D[TfeGA]AAFN[PyrS2][3Thi][Bta]H-NH2
modifications: staple 1-4, 4-11
B24: I-1174 (peptide)
peptide: Ac-[αAllylPro]D[Cha][B5(4)]DTAAFL[PyrS2″][3Thi][Bta]Q-NH2
modifications: staple 1-4, 4-11
B25: I-1172 (peptide)
peptide: Ac-[αAllylPro]D[tBuAla][B5(4)]DTAAFL[PyrS2″][Phe(2-Cl)][Bta]S-NH2
modifications: staple 1-4, 4-11
B26: I-1167 (peptide)
peptide: Ac-[αAllylPro]D[tBuAla][B5(4)]DTAAFL[PyrS2″][3Thi][Bta]Q-NH2
modifications: staple 1-4, 4-11
B27: I-1175 (peptide)
peptide: Ac-[αAllylPro]D[Cha][B5(4)]DTAAFT[PyrS2″][Phe(2-Cl)][Bta]Q-NH2
modifications: staple 1-4, 4-11
B28: I-1166 (peptide)
peptide: Ac-[αAllylPro]D[tBuAla][B5(4)]DTAAFT[PyrS2″][3Thi][Bta]Q-NH2
modifications: staple 1-4, 4-11
B29: I-1177 (peptide)
peptide: Ac-[αAllylPro]D[tBuAla][B5(4)]DD[Aib]AFL[PyrS2″][3Thi][Bta]Q-NH2
modifications: staple 1-4, 4-11
B30: I-1171 (peptide)
peptide: Ac-[αAllylPro]D[tBuAla][B5(4)]DTAAFL[PyrS2″][3Thi][Bta]S-NH2
modifications: staple 1-4, 4-11
B31: I-1168 (peptide)
peptide: Ac-[αAllylPro]D[tBuAla][B5(4)]DTAAFT[PyrS2″][Phe(2-Cl)][Bta]Q-NH2
modifications: staple 1-4, 4-11
B32: I-1173 (peptide)
peptide: Ac-[αAllylPro]D[Cha][B5(4)]DTAAFT[PyrS2″][3Thi][Bta]Q-NH2
modifications: staple 1-4, 4-11
B33: I-1161 (peptide)
peptide: Ac-[αAllylPro][ξβ3hD][tBuAla][B5(4)]D[TfeGA]AAFN[PyrS2″][3Thi][Bta]Q-NH2
modifications: staple 1-4, 4-11
B34: I-1170 (peptide)
peptide: Ac-[αAllylPro]D[tBuAla][B5(4)]DTAAFT[PyrS2″][3Thi][Bta]S-NH2
modifications: staple 1-4, 4-11
B35: I-1178 (peptide)
peptide: Ac-[αAllylPro]D[tBuAla][B5(4)]DDA[Aib]FL[PyrS2″][3Thi][Bta]Q-NH2
modifications: staple 1-4, 4-11

What follows are binders tested against T1, beta-catenin in DLD1 TCF/LEF luciferase reporter cells (UniProt P35222 1-781) (assay: cell-based or functional assay).
T1 sequence (looked up): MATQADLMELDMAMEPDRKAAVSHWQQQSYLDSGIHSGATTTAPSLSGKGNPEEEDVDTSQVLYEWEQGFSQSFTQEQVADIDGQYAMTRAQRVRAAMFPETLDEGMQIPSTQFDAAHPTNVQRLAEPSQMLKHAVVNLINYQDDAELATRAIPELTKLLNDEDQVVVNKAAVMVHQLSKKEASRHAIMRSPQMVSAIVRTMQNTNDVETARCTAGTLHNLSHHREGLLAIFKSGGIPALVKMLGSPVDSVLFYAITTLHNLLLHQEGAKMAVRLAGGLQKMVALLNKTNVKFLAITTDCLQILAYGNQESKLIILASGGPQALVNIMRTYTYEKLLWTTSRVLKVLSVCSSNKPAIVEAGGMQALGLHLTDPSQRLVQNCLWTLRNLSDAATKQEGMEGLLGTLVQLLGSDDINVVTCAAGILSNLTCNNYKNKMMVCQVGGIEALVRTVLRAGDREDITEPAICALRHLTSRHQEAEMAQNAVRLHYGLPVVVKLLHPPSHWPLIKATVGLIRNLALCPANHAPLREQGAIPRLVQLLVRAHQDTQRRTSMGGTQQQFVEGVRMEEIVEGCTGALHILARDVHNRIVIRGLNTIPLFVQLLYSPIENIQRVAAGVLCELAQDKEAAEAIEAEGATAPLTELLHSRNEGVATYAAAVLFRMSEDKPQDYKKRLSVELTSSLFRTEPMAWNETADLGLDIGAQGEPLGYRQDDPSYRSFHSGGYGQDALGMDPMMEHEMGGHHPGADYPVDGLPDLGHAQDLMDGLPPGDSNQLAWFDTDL

Row | Binder | DLD1 reporter assay Abs IC50 [µM]
1 | B1 | 11.1
2 | B2 | 13
3 | B3 | > 20
4 | B4 | 8
5 | B5 | 8.3
6 | B6 | > 20
7 | B7 | 3.3
8 | B8 | > 20
9 | B9 | 21.4
10 | B10 | > 20
11 | B11 | 9
12 | B12 | > 20

These binders were tested against T2, B-cat-Halo (UniProt P35222 1-781) (assay: cell-based or functional assay).
T2 sequence (looked up): T1 sequence (looked up)

Row | Binder | NanoBRET Abs IC50 [µM]
13 | B13 | > 20

The binders below were run against T3, B-cat-Halo (beta-catenin HaloTag NanoBRET construct expressed in HEK293 cells) (UniProt P35222 1-781) (assay: cell-based or functional assay).
T3 sequence (looked up): T1 sequence (looked up)

Row | Binder | NanoBRET Abs IC50 [µM]
14 | B14 | > 20
15 | B15 | > 20

Each binder was assayed against T4, B-cat-Halo (NanoBRET construct expressed in HEK293 cells) (UniProt P35222 1-781, HaloTag NanoBRET 618 Ligand bound in the assay) (assay: cell-based or functional assay).
T4 sequence (looked up): T1 sequence (looked up)

Row | Binder | NanoBRET Abs IC50 [µM]
16 | B16 | 21.3
17 | B17 | 13.7
18 | B18 | 30.9
19 | B19 | 31.4
20 | B20 | 37.3
21 | B21 | 37.2
22 | B22 | > 20
23 | B23 | 13

What follows are binders tested against T5, B-cat-Halo (UniProt P35222 1-781) (assay: cell-based or functional assay).
T5 sequence (looked up): T1 sequence (looked up)

Row | Binder | NanoBRET Abs IC50 [µM]
24 | B24 | 32.6
25 | B25 | 19.4
26 | B26 | 11.7
27 | B27 | 27.3
28 | B28 | 14.6
29 | B29 | 4.3
30 | B30 | 28.8
31 | B31 | 31.4
32 | B32 | 17.2
33 | B33 | > 20
34 | B34 | 13.5
35 | B35 | 28.8
